The record followed here is the MegaScale stability set (Tsuboyama et al. 2023).

To fix the notation:
B1: EHEE_rd4_0086 (parent)
chain: EIHIRTNGEEQARKVYKMLAKRNYDVKIEQHNGQWVVTAS

The variants in this data set derive from B1. Briefly: folding stability dG (cDNA display proteolysis); higher = more stable. The conditions noted are these: PBS, room temperature.
As to EIHIRTNGEEQARKVYKMLAKRNYDVKIELHNGQWVVTAS [Q30L], the “folding stability dG” value worked out at 1.93 kcal/mol.
For EIHIRTNGEEQARKVYKMLAKRNYDVKIEIHNGQWVVTAS [Q30I], the “folding stability dG” value came out at 2.1 kcal/mol.
Take EIHIRTNGEEQARKVYKMLAKRNYDVKIEKHNGQWVVTAS [Q30K]: the “folding stability dG” value was found to be 1.88 kcal/mol.
The value for EIHIRTNGEEQCRKVYKMLAKRNYDVKIEQHNGQWVVTAS [A12C] was 2.51 kcal/mol; that for EIHIRTNGEEQVRKVYKMLAKRNYDVKIEQHNGQWVVTAS [A12V] was -0.114 kcal/mol; that for EIHIRTNGEEQQRKVYKMLAKRNYDVKIEQHNGQWVVTAS [A12Q] was -0.947 kcal/mol.
Regarding EIHIRTNGEEQLRKVYKMLAKRNYDVKIEQHNGQWVVTAS [A12L], the “folding stability dG” value amounted to 0.213 kcal/mol.
As for EIHIRWNGEEQARKVYKMLAKRNYDVKIEQHNGQWVVTAS [T6W], the “folding stability dG” value came to 0.843 kcal/mol.
In the case of EYHIRTNGEEQARKVYKMLAKRNYDVKIEQHNGQWVVTAS [I2Y], the “folding stability dG” value was 1.65 kcal/mol.
For the variant ESHIRTNGEEQARKVYKMLAKRNYDVKIEQHNGQWVVTAS [I2S], the “folding stability dG” value is 0.144 kcal/mol.
In the case of EQHIRTNGEEQARKVYKMLAKRNYDVKIEQHNGQWVVTAS [I2Q] it was 0.226 kcal/mol.
Take EIHIRTNGEEQARKVYKMLAKRNYDVKIEQHDGQWVVTAS [N32D]: the “folding stability dG” value came to 1.9 kcal/mol.
In the case of EIHIRTNGEEQARKVYKMLAKRNYDVKIEQHFGQWVVTAS [N32F], the “folding stability dG” value amounted to 1.45 kcal/mol.
The value for EIHIRTNGEEQARKVYKMLAKRNYDVKIEQHVGQWVVTAS [N32V] was 0.762 kcal/mol; that for EIHIRTNGEEQARKVYKNLAKRNYDVKIEQHNGQWVVTAS [M18N] was 1.14 kcal/mol.
The value for EIHIRTNGEEQARKVYKGLAKRNYDVKIEQHNGQWVVTAS [M18G] was 0.727 kcal/mol; that for EIHIRTNGEEQARKVYKDLAKRNYDVKIEQHNGQWVVTAS [M18D] was 1.08 kcal/mol.
Turning to EIHIRTNGEEQARKVYKKLAKRNYDVKIEQHNGQWVVTAS [M18K], the “folding stability dG” value was 1.37 kcal/mol.
The value for EIHIRTNGEEQARKVYKILAKRNYDVKIEQHNGQWVVTAS [M18I] was 1.81 kcal/mol; that for EIHIRTNGEEQARKVYKELAKRNYDVKIEQHNGQWVVTAS [M18E] was 1.67 kcal/mol.
In the case of EIHIRTNGEEQARKVYKHLAKRNYDVKIEQHNGQWVVTAS [M18H], the “folding stability dG” value turned out to be 1.54 kcal/mol.
As for EIHIRTNGEEQARKVYKMLWKRNYDVKIEQHNGQWVVTAS [A20W], the “folding stability dG” value turned out to be 1.46 kcal/mol.
Regarding EIHIRTNGEEQARKVYKMLDKRNYDVKIEQHNGQWVVTAS [A20D], the “folding stability dG” value was found to be 0.486 kcal/mol.
With EIHIRTNGEEQARKVYKMLTKRNYDVKIEQHNGQWVVTAS [A20T], the “folding stability dG” value is 1.75 kcal/mol.
On to EIHIRTNGEEQARKVYKMLHKRNYDVKIEQHNGQWVVTAS [A20H], for which the “folding stability dG” value was found to be 1.36 kcal/mol.
Turning to EIHIRTNGEEQARKVYKMLVKRNYDVKIEQHNGQWVVTAS [A20V], the “folding stability dG” value amounted to 2.18 kcal/mol.
For the variant EIHIRTNMEEQARKVYKMLAKRNYDVKIEQHNGQWVVTAS [G8M], the “folding stability dG” value is 1.88 kcal/mol.
On to EIHIRTNREEQARKVYKMLAKRNYDVKIEQHNGQWVVTAS [G8R], for which the “folding stability dG” value came to 2.17 kcal/mol.
Regarding EIHIRTNKEEQARKVYKMLAKRNYDVKIEQHNGQWVVTAS [G8K], the “folding stability dG” value was 2.1 kcal/mol.
In the case of EIHIRTNFEEQARKVYKMLAKRNYDVKIEQHNGQWVVTAS [G8F], the “folding stability dG” value was found to be 2.22 kcal/mol.
As to EIHIRTNVEEQARKVYKMLAKRNYDVKIEQHNGQWVVTAS [G8V], the “folding stability dG” value worked out at 2.06 kcal/mol.
In the case of EIHIRTNGEEQARKVYKMLANRNYDVKIEQHNGQWVVTAS [K21N] it was 1.77 kcal/mol.
With EIHIRTNGEEQARKVYKMLAVRNYDVKIEQHNGQWVVTAS [K21V], the “folding stability dG” value stood at 1.63 kcal/mol.
Take EIHIRTNGEEQARKVYKMLAFRNYDVKIEQHNGQWVVTAS [K21F]: the “folding stability dG” value turned out to be 1.7 kcal/mol.
Consider EINIRTNGEEQARKVYKMLAKRNYDVKIEQHNGQWVVTAS [H3N], for which the “folding stability dG” value turned out to be 1.67 kcal/mol.
For EIPIRTNGEEQARKVYKMLAKRNYDVKIEQHNGQWVVTAS [H3P], the “folding stability dG” value came out at 0.072 kcal/mol.
As to EIIIRTNGEEQARKVYKMLAKRNYDVKIEQHNGQWVVTAS [H3I], the “folding stability dG” value came out at 2.81 kcal/mol.
Take EIAIRTNGEEQARKVYKMLAKRNYDVKIEQHNGQWVVTAS [H3A]: the “folding stability dG” value came to 1.64 kcal/mol.
With EIEIRTNGEEQARKVYKMLAKRNYDVKIEQHNGQWVVTAS [H3E], the “folding stability dG” value worked out at 2 kcal/mol.
For EIHIRTNGEEQARKVYKMLAKANYDVKIEQHNGQWVVTAS [R22A], the “folding stability dG” value turned out to be 1.84 kcal/mol.
With EIHIRTNGEEQARKVYKMLAKGNYDVKIEQHNGQWVVTAS [R22G], the “folding stability dG” value was 1.16 kcal/mol.
As for EIHIRTNGEEQARKVYKMLAKDNYDVKIEQHNGQWVVTAS [R22D], the “folding stability dG” value is 1.08 kcal/mol.
The value for EIHIRTNGEEQARKVFKMLAKRNYDVKIEQHNGQWVVTAS [Y16F] was 1.93 kcal/mol.
Consider EIHIRTNGEEQARKVGKMLAKRNYDVKIEQHNGQWVVTAS [Y16G], for which the “folding stability dG” value stood at 1.88 kcal/mol.
With EIHIRTNGEEQARKVYKMLAKRNYDVKIEQHNGQWVVYAS [T38Y], the “folding stability dG” value was 1.75 kcal/mol.
In the case of EIHIRTNGEEQARKVYKMLAKRNYDVKIEQHNGQWVVIAS [T38I] it was 2.59 kcal/mol; in that of EIHIRTNGEEQARKVYKMLAKRNYDVKIEQHNGQWVVHAS [T38H], 1.64 kcal/mol; in that of EIHIRTNGEEQARKVYKMLAKRNYDVKIEQHNGQWVVDAS [T38D], 0.023 kcal/mol.
As for YIHIRTNGEEQARKVYKMLAKRNYDVKIEQHNGQWVVTAS [E1Y], the “folding stability dG” value was determined as 2.5 kcal/mol.
As for PIHIRTNGEEQARKVYKMLAKRNYDVKIEQHNGQWVVTAS [E1P], the “folding stability dG” value is 1.91 kcal/mol.
Take KIHIRTNGEEQARKVYKMLAKRNYDVKIEQHNGQWVVTAS [E1K]: the “folding stability dG” value was determined as 2.3 kcal/mol.
As for GIHIRTNGEEQARKVYKMLAKRNYDVKIEQHNGQWVVTAS [E1G], the “folding stability dG” value turned out to be 1.84 kcal/mol.
In the case of WIHIRTNGEEQARKVYKMLAKRNYDVKIEQHNGQWVVTAS [E1W] it was 2.55 kcal/mol.
On to EIHIRTNGEEQARKVYSMLAKRNYDVKIEQHNGQWVVTAS [K17S], for which the “folding stability dG” value worked out at 1.77 kcal/mol.
The value for EIHIRTNGEEQARKVYMMLAKRNYDVKIEQHNGQWVVTAS [K17M] was 2.15 kcal/mol; that for EIHIRTNGEEQARKVYQMLAKRNYDVKIEQHNGQWVVTAS [K17Q] was 2.1 kcal/mol.
EIHIRTNGEEQARKVYTMLAKRNYDVKIEQHNGQWVVTAS [K17T]: the “folding stability dG” value stood at 1.91 kcal/mol.
On to EIHIRTNGEEQARKVYFMLAKRNYDVKIEQHNGQWVVTAS [K17F], for which the “folding stability dG” value was found to be 1.86 kcal/mol.
On to EIHIRTNGEEQARKVYKMLAKRNIDVKIEQHNGQWVVTAS [Y24I], for which the “folding stability dG” value amounted to 1.42 kcal/mol.
Consider EIHIRTNGEEQARKVYKMLAKRNADVKIEQHNGQWVVTAS [Y24A], for which the “folding stability dG” value was 1.08 kcal/mol.
Regarding EIHIRTNGEEQARKVYKMLAKRNYDVKIEQHNTQWVVTAS [G33T], the “folding stability dG” value was 0.841 kcal/mol.
For the variant EIHIRTNGEDQARKVYKMLAKRNYDVKIEQHNGQWVVTAS [E10D], the “folding stability dG” value worked out at 1.74 kcal/mol.
